The values below come from patent US20240309095A1 (Incyte, published 2024).

Test [1] deals with T1, human B7-H4 (purified monomeric recombinant human protein, ACRO biosystems) (human, UniProt Q7Z7D3 29-258, limits assumed, chemically biotinylated (EZ-Link NHS-LC-Biotin) in the yeast display and competition experiments; non-biotinylated in SPR).
T1 construct: Bought recombinant monomeric protein; also called B7x; B7S1
T1 sequence: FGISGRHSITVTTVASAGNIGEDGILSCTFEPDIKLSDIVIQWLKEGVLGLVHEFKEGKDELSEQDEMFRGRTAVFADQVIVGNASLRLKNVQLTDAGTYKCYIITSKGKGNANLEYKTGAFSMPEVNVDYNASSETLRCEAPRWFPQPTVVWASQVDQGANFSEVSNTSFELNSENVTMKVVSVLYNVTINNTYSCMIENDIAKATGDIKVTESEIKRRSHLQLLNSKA
The test is described as follows: SPR (Carterra LSA); scFv-Fc captured on anti-human IgG Fc, antigen injected. The method, then: (§1) Finally, the affinity of the 24 clones was determined using high-throughput surface plasmon resonance (SPR). The supernatants were arrayed by non-covalent capture in a medium-density SPR chip previously coupled with an anti-human polyclonal antibody and (at least 4 replicates per clone). Non-biotinylated antigen was used for all affinity measurements and sensorgrams were fitted using a pseudo-first-order kinetic model (Lundström 1994). […] In fact, it is notable that the off rates for some of the tested antibodies are probably better than 10⁻⁵ (Table 7), as indicated by the bunching of matured antibodies at that value (Table 7)—such slow off rates are challenging to accurately measure using SPR. No affinity difference was observed between clones coming from one combo library versus the other.
(§2) The scFv from the final population (round 3, combo libraries) was bulk cloned into a yeast expression vector containing a human IgG1 Fc region to be expressed in the scFv-Fc format. For this, the scFv region was amplified by PCR, digested with BssHII and NheI restriction enzyme (New England Biolabs), and cloned into the pDNL9 vector, 92 clones were analyzed by Sanger sequencing and 24 of these plus the parental were expressed using S. cerevisiae strain YVH10 (ATCC MYA-4940). scFv-Fc fusions were expressed for 72 h at 20° C. in the presence of galactose. The Carterra LSA surface resonance system was used for the affinity measurements. Briefly, anti-Human IgG Fc (Southern Biotech, #2048-01) was covalently coupled to an HC30M chip following the manufacturer's protocols. Crude yeast supernatants containing the scFv-Fc fusions were arrayed on the chip.

For test [2], the target named is T1, human B7-H4 (purified monomeric …). The test is described as follows: SPR (Carterra LSA); scFv-Fc captured on anti-human IgG Fc, antigen injected; asterisk: reached minimum allowed dissociation rate; asterisk: kd at the minimum value allowed (10^-5 s^-1). The protocol: as §1
The scFv from the final population (round 3, combo libraries) was bulk cloned into a yeast expression vector containing a human IgG1 Fc region to be expressed in the scFv-Fc format. For this, the scFv region was amplified by PCR, digested with BssHII and NheI restriction enzyme (New England Biolabs), and cloned into the pDNL9 vector, 92 clones were analyzed by Sanger sequencing and 24 of these plus the parental were expressed using S. cerevisiae strain YVH10 (ATCC MYA-4940). scFv-Fc fusions were expressed for 72 h at 20° C. in the presence of galactose. […]

Test [3] has the same target. Description: SPR (Carterra LSA); scFv-Fc captured on anti-human IgG Fc, antigen injected; asterisk: reached minimum allowed dissociation rate. The method, then: as §1, §2

B1: A06 scFv-Fc (scFv, V domains shown)
VH: EVQLVESGGGVVQPGRSLRLSCAASGFTFGDRAMNWVRQAPGKGLEWVSAISGTGATTYYADSVKGRFTISRDNSKNTLYLQMNSLRAEDTAVYYCARKRWYGMDVWGQGTTVTVSS
VL: SYELTQPPSVSVAPGKTARITCGGNNIVTKSVHWYQQKPGQAPVLVVYDDSDRPSGIPERFSGSNSGNTATLTISRVEAGDEADYYCQVWDRGMIFGTGTKLTVL
notes: Tested as scFv-Fc fusion (human IgG1 Fc, vector pDNL9) in crude yeast supernatant; Combo 1 library
Consider B1, for which, in test [1], the KD fold-improvement was found to be 221 fold over parental, the Kd was at most 0.034 nM and the kon turned out to be 320000 M⁻¹ s⁻¹. In test [2], the dissociation rate constant (koff) is at most 1e-05 s⁻¹.

B2: Parental (H6.1) scFv-Fc (scFv, V domains shown)
VH: EVQLVESGGGVVQPGRSLRLSCAASGFTFSSYSMNWVRQAPGKGLEWVSAISGSGGSTYYADSVKGRFTISRDNSKNTLYLQMNSLRAEDTAVYYCARKRWYGMDVWGQGTTVTVSS
VL: SYELTQPPSVSVAPGKTARITCGGNNIGSKSVHWYQQKPGQAPVLVVYDDSDRPSGIPERFSGSNSGNTATLTISRVEAGDEADYYCQVWDSRTYVFGTGTKLTVL
notes: Expressed with the 24 clones as scFv-Fc fusion (human IgG1 Fc) in yeast for SPR; also called parental antibody; parental molecule
On to B2, for which, in test [1], the KD fold-improvement was 1 fold over parental, the Kd stood at 7.43 nM, the koff came to 0.0033 s⁻¹ and the kon came to 450000 M⁻¹ s⁻¹.

B3: B10 scFv-Fc (scFv, V domains shown)
VH: EVQLVESGGGVVQPGRSLRLSCAASGFTFSTRAMNWVRQAPGKGLEWVSAISGTGDTTYYADSVKGRFTISRDNSKNTLYLQMNSLRAEDTAVYYCARKRWYGMDVWGQGTTVTVSS
VL: SYELTQPPSVSVAPGKTARITCGGNNIGSKSVHWYQQKPGQAPVLVVYDDSDRPSGIPERFSGSNSGNTATLTISRVEAGDEADYYCQVWGRYQMIFGTGTKLTVL
notes: Tested as scFv-Fc fusion (human IgG1 Fc, vector pDNL9) in crude yeast supernatant; Combo 2 library
Consider B3, for which, in test [1], the KD fold-improvement is 64 fold over parental, the Kd came to 0.116 nM, the koff worked out at 2.9e-05 s⁻¹ and the kon is 260000 M⁻¹ s⁻¹.

B4: A07 scFv-Fc (scFv, V domains shown)
VH: EVQLVESGGGVVQPGRSLRLSCAASGFTFSSRSMNWVRQAPGKGLEWVSAISGSGSTVYYADSVKGRFTISRDNSKNTLYLQMNSLRAEDTAVYYCARKRWYGMDVWGQGTTVTVSS
VL: SYELTQPPSVSVAPGKTARITCGGNNIGSKSVHWYQQKPGQAPVLVVYDDSDRPSGIPERFSGSNSGNTATLTISRVEAGDEADYYCQVWDSRTYVFGTGTKLTVL
notes: as for B3
With B4, in test [1], the KD fold-improvement came out at 27 fold over parental, the Kd came out at 0.277 nM, the koff was determined as 4.7e-05 s⁻¹ and the kon turned out to be 170000 M⁻¹ s⁻¹.

B5: B01 scFv-Fc (scFv, V domains shown)
VH: EVQLVESGGGVVQPGRSLRLSCAASGFTFSDRAMNWVRQAPGKGLEWVSAISYEGRTQYYADSVKGRFTISRDNSKNTLYLQMNSLRAEDTAVYYCARKRWYGMDVWGQGTTVTVSS
VL: SYELTQPPSVSVAPGKTARITCGGNNIGVKSVHWYQQKPGQAPVLVVYDDSDRPSGIPERFSGSNSGNTATLTISRVEAGDEADYYCQVWDSRTYVFGTGTKLTVL
notes: as for B1
Turning to B5, in test [1], the KD fold-improvement was found to be 231 fold over parental, the dissociation constant Kd was at most 0.032 nM and the kon was 310000 M⁻¹ s⁻¹. For the same molecule, in test [3], the koff was at most 1e-05 s⁻¹.

B6: G05 scFv-Fc (scFv, V domains shown)
VH: EVQLVESGGGVVQPGRSLRLSCAASGFTFSSRSMNWVRQAPGKGLEWVSAISGSGSTVYYADSVKGRFTISRDNSKNTLYLQMNSLRAEDTAVYYCARKRWYGMDVWGQGTTVTVSS
VL: SYELTQPPSVSVAPGKTARITCGGNKLGDKWVHWYQQKPGQAPVLVVYEDVDRPSGIPERFSGSNSGNTATLTISRVEAGDEADYYCQVWDSRTYVFGTGTKLTVL
notes: Tested as scFv-Fc fusion (human IgG1 Fc, vector pDNL9) in crude yeast supernatant; Combo 1 library; also called G5
B6: in test [1], the KD fold-improvement is 119 fold over parental, the Kd is at most 0.063 nM and the kon came out at 160000 M⁻¹ s⁻¹. Further, the koff in test [3] was at most 1e-05 s⁻¹.

B7: A12 scFv-Fc (scFv, V domains shown)
VH: EVQLVESGGGVVQPGRSLRLSCAASGFTFDNRAMNWVRQAPGKGLEWVSAISSSGSTMYYADSVKGRFTISRDNSKNTLYLQMNSLRAEDTAVYYCARKRWYGMDVWGQGTTVTVSS
VL: SYELTQPPSVSVAPGKTARITCGGNNIGSKSVHWYQQKPGQAPVLVVYDDSDRPSGIPERFSGSNSGNTATLTISRVEAGDEADYYCQVWDSRTYVFGTGTKLTVL
notes: as for B3
Take B7: in test [1], the KD fold-improvement amounted to 53 fold over parental, the Kd is 0.139 nM, the koff stood at 3.2e-05 s⁻¹ and the kon was found to be 230000 M⁻¹ s⁻¹.

B8: B12 scFv-Fc (scFv, V domains shown)
VH: EVQLVESGGGVVQPGRSLRLSCAASGFTFSDRAMNWVRQAPGKGLEWVSAISGTGASTYYADSVKGRFTISRDNSKNTLYLQMNSLRAEDTAVYYCARKRWYGMDVWGQGTTVTVSS
VL: SYELTQPPSVSVAPGKTARITCGGNNIGSKSVHWYQQKPGQAPVLVVYDDSDRPSGIPERFSGSNSGNTATLTISRVEAGDEADYYCQVWDRGMIFGTGTKLTVL
notes: as for B3
For B8, in test [1], the KD fold-improvement was determined as 89 fold over parental, the Kd was determined as 0.084 nM, the koff came out at 2.8e-05 s⁻¹ and the kon came to 340000 M⁻¹ s⁻¹.

B9: B05 scFv-Fc (scFv, V domains shown)
VH: EVQLVESGGGVVQPGRSLRLSCAASGLTFSSRAMNWVRQAPGKGLEWVSAISGTGATTYYADSVKGRFTISRDNSKNTLYLQMNSLRAEDTAVYYCARKRWYGMDVWGQGTTVTVSS
VL: SYELTQPPSVSVAPGKTARITCGGNNIGSKMVHWYQQKPGQAPVLVVYDDSDRPSGIPERFSGSNSGNTATLTISRVEAGDEADYYCQVWDRGMIFGTGTKLTVL
notes: as for B1
For B9, in test [1], the KD fold-improvement turned out to be 109 fold over parental, the Kd was at most 0.068 nM and the kon amounted to 150000 M⁻¹ s⁻¹. The koff in test [3] was at most 1e-05 s⁻¹.

B10: B02 scFv-Fc (scFv, V domains shown)
VH: EVQLVESGGGVVQPGRSLRLSCAASGFTFSSRSMNWVRQAPGKGLEWVSAISGSGSTVYYADSVKGRFTISRDNSKNTLYLQMNSLRAEDTAVYYCARKRWYGMDVWGQGTTVTVSS
VL: SYELTQPPSVSVAPGKTARITCGGNNIGVKSVHWYQQKPGQAPVLVVYDDSDRSPGIPERFSGSNSGNTATLTISRVEAGDEADYYCQVWDSRTYVFGTGTKLTVL
notes: as for B1
As to B10, in test [1], the KD fold-improvement amounted to 127 fold over parental, the Kd amounted to 0.059 nM, the koff turned out to be 1.1e-05 s⁻¹ and the kon was found to be 180000 M⁻¹ s⁻¹.

For orientation: Kd means the concentration at which binding is half-saturated. A word on the kon: it is a measure of how fast the partners come together. As usually defined, the koff is the first-order rate constant of dissociation.
